Laboratory results as given in patent US6670452B2, “Non-naturally occurring lipoprotein particle” (University of Strathclyde, priority 1996, dated 2003).
Entries after “also recorded” stand apart in the source; their conditions may differ. No end group written: not given here. lipid anchor = not defined here

Key:
[1] = Zeta potential measurement; format: physicochemical; details: for Zeta potential increase at low peptide concentrations: below 0.2 moles/mole CO, diameter unchanged; for Changes of mean number diameter and zeta potential in altered surface lipid formulations (FIG. 10): microemulsion formulations with PC, SM, UC, TO, CO; for Zeta potential reached with increasing peptide concentration: plateau / constant value, FIG. 8, pH 8.0 Tris, 25° C.
Experimental: Samples were diluted 1 in 5 with 0.01M Tris buffer (pH 8.0) and zeta potential measured at 25° C. using the Zetasizer® 4 (Malvern Instruments). The applied voltage was 150V in each case and duty cycling was used to limit the cell current to 20 mA. All results quoted are the mean and standard deviation of at least 10 measurements.

[2] = system: U937 cells; assay: U937 cell growth (proliferation) assay; format: cell-based; details: DFCS 5% v/v, peptide 0.03 mol/mol cholesterol oleate, 72 hours, range of cholesterol concentrations
Experimental: U937 stock cultures were grown at 37° C. in RPMI 1640 media supplemented glutamine (10 mM), gentamicin (50 μg/ml), fungizone (0.5 μg/ml) and 10% (v/v) foetal calf serum (FCS). Cells were maintained in a humidified 5% CO2, atmosphere between 1-8×10^5 cells/ml and sub-cultured twice weekly.
All growth assays were conducted over 72 hours in 24 well plates unless otherwise indicated. One day before each growth experiment, cells were centrifuged at 1500 rpm for 5 minutes and resuspended in RPM: medium containing 5% (v/v) delipidated foetal calf serum (DFCS) to initiate cholesterol starvation and up regulate LDL receptors. Cells were collected by centrifugation and seeded at 1×10^5/well. Appropriate amounts of cholesterol (either LDL, microemulsion or nLDL) were then added after filtration (0.2 μm) and the well volume made up to 1 ml with RPMI containing 5% (v/v) DFCS. After 72 hours an aliquot of each well was diluted with PBS and the number of cells present determined in triplicate by Coulter Counter. Different concentrations were repeated four or eight times depending on the experiment. Three wells per experiment were checked at random before commencement of incubation to ensure a uniform cell density was achieved. […] In all cases, the mean starting cell densities of control resells were between 0.95 and 1.05×10^5 cells/ml.

[3] = Particle size by photon correlation spectroscopy; format: physicochemical; details: for Peptide concentration producing increases in diameter: FIG. 8; for Effect of increasing peptide concentration on particle diameter: FIG. 8, Number Mean Diameter
Experimental: Particle size analysis was carried out using photon correlation spectroscopy (Zetasizer® Model 4, Malvern Instruments, Malvern, (UK). Before analysis samples were diluted with Tris-HCl buffer (0.01M) and filtered (0.2 μm). Sizing measurements were carried out at a fixed angle of 90° to the incident beam. The correlator was operated in parallel mode to allow for more accurate size distribution measurements. The cumulants method of analysis was used to calculate the mean sample size weighted according to the intensity of scattered light (z-average diameter). Since this diameter is weighted strongly on favour of large particles, Rayleigh theory was used to convert intensity distributions into number distributions [^12]. The viscosity and refractive index values of pure water were used in the size calculations. All results quoted are the mean and standard deviation of at least 10 measurements.

[4] = system: B16 cells; assay: 14C-nLDL cell binding assay at 4° C.; details: peptide 0.03 mol/mol cholesterol
Experimental: The required quantity of 14C-cholesteryl oleate (0.5 μCi-/mmol CO, supplied dissolved in toluene) was mixed if required with ten times its volume of DMSO prior to addition to stirred nLDL heated at 55° C. in a water bath. After incubation for 5 hours the mixture was passed down a Sephadex G-25M gel exclusion chromatography column (bed volume 10 ml) eluted with PBS. Fractions (1 ml) were collected their absorbance (300 nm) and 14C-cholesteryl oleate activity measured. Labelled preparations were filter sterilised (0.2 μm) and stored at 4° C. under N2 before use.
B16 cells were maintained in RPM: 1640 medium supplemented with 10% v/v FCS incubated at 37° C. in a 5% CO2 in air atmosphere. Confluent cultures were trypsinised, harvested and re-seeded at a dilution of 1 in 20 in fresh medium.
B16 cells were harvested in the log growth phase, washed by centrifugation and re-seeded into 24 well plates 1×10^5 cells/ml in media containing 10 v/v DFCS. After overnight incubation the cells were cooled to 4° C. for 1 hour, the media aspirated and replaced with ice cold media containing 10% v/v DFCS, supplemented with 14C-nLDL at a cholesterol concentration of 0.08 mmol/l. Four replicate wells were used for each concentration. Cells were then incubated at 4° C. for 4 hours with occasional rocking, the media aspirated and cells washed three times with ice cold PBS/BSA buffer (2 mg/ml BSA in PBS) followed by two ten minute incubations with ice cold PBS/BSA. Three final washes with ice cold PBS were then conducted. The 14C-cholesteryl oleate was extracted with hexane/isocropanol for 30 minutes at room temperature, aspirated and then mixed with 3 ml of scintillation fluid prior to counting. Cellular protein left in the well after extraction was assayed using Peterson's modification of the Lowry method^14. Sodium deoxycholate (1.5 mg/ml) was added to solubilise the protein, which was then precipitated by the addition of trichloroacetic acid (72% w/v), pelleted by centrifugation (5,000 rpm 10 minutes), the supernatant discarded and the pellet solubilised in Lowry reagent at room temperature for 20 minutes. Folin Ciocalteu's reagent was added, the solutions mixed and the colour allowed to develop for 30 minutes prior to absorbance measurements at 690 nm using a plate reader. A calibration curve was clotted from BSA standards ranging from 20 to 200 μg/ml.

For “Peptide A: eleven amino acids Apo B binding site peptide with both C and N terminal lipid anchors (FIG. 7) ({lipid anchor}-LRLTRKRGLKL; not fully specified (C-terminus); reading uncertain; also: C-terminal lipid anchor)”, the “Difference in zeta potential between the lipid formulations” value ([1]; FIG. 10) was “significant difference in zeta potential between the lipid formulations”, the “Zeta potential increase at low peptide concentrations” value (shortened to “Zeta potential increase”) [1] was “roughly equal” and the “Changes of mean number diameter and zeta potential in altered surface lipid formulations (FIG. 10)” value (“Changes” for short) [1] was “reversal of zeta potential with little change in diameter”. For the same substance, the “Zeta potential reached with increasing peptide concentration” value [1] was “around +17 mV”, the “Growth of U937 cells induced by different nLDL preparations (FIG. 4)” value [2] was “least effective” and the “Peptide concentration producing increases in diameter” value [3] was 0.5 moles /mole CO. The “Effect of increasing peptide concentration on particle diameter” value [3] was “Below 0.5 moles/mole Co Peptide A has no effect on size”.

For “Peptide B: eleven amino acid Apo B binding site peptide without the C-terminal cholesterol anchor (FIG. 7) ({lipid anchor}-GTTRLTRKRGLKL; not fully specified; reading uncertain)”, the “Total binding curve to B16 cells (FIG. 11)” value (from here on “Total binding curve”) [4] was “saturable increase in total binding”, the “Zeta potential increase” value [1] was “roughly equal” and the “Changes” value [1] was “reversal of zeta potential with little change in diameter”. For the same substance, the “Zeta potential reached with increasing peptide concentration” value [1] was “~+15 mV”, the “Growth of U937 cells induced by different nLDL preparations (FIG. 4)” value [2] was “greatest increase in proliferation” and the “Effect of increasing peptide concentration on particle diameter” value [3] was “size also remains constant; also recorded: no effect at any concentration”.

For “Peptide C: twenty two amino acid peptide containing the Apo B binding region, with both lipid anchors (FIG. 7) ({lipid anchor}-YKLQGTTRLTRKRGLKLATALS; not fully specified (C-terminus); reading uncertain; also: C-terminal lipid anchor)”, the “Total binding curve” value [4] was “saturable increase in total binding”, the “Zeta potential increase” value [1] was “double the effect” and the “Effect of peptide on zeta potential” value ([1]; increasing peptide concentrations, FIG. 8) was “reversal of zeta potential”. For the same substance, the “Changes” value [1] was “large alterations in both parameters”, the “Growth of U937 cells induced by different nLDL preparations (FIG. 4)” value [2] was “greatest increase in proliferation” and the “Peptide concentration producing increases in diameter” value [3] was 0.2 moles /mole CO. The “Effect of increasing peptide concentration on particle diameter” value [3] was “diameter almost doubles”.

For “Peptide D: twenty two amino acid peptide with the cholesterol anchor removed (FIG. 7) (YKLEGTTRLTRKRGLKLATALS; also: lipid anchor, cholesterol anchor removed)”, the “Total binding curve” value [4] was “saturable increase in total binding” and the “Growth of U937 cells induced by different nLDL preparations (FIG. 4)” value [2] was “greatest increase in proliferation”.

For “Peptide E: random, non Apo B binding region sequence based on the amino acids of the previous peptides (FIG. 7) (TGKRYRLKTLRTLKKTSLLEAA; ()..() Synthesised peptide analogue of the Apo B 100 binding site)”, the “Total binding curve” value [4] was “saturable increase in total binding” and the “Growth of U937 cells induced by different nLDL preparations (FIG. 4)” value [2] was “least effective”.
